Stoichiometry N data for two substances are collected here from PMC9612331.

Assay [1] addresses Human parvovirus 4 (PARV4) capsid protein VP2 (human parvovirus 4 (PARV4)). The assay is described as follows: cryo-EM structure.
Assay [2] deals with Aleutian mink disease virus (AMDV) capsid protein VP2 (Aleutian mink disease virus (AMDV)). The assay is described as follows: cryo-EM structure.

The term stoichiometry N denotes the number of molecules, sites or subunits per partner or assembly. “Human parvovirus 4 (PARV4) capsid protein VP2 (natural protein)” displayed a stoichiometry N in assay [1] of 60.
For the substance “Aleutian mink disease virus (AMDV) capsid protein VP2 (natural protein)”, in assay [2], the stoichiometry N is 60.
